Reference: article PMC4836915 (Journal of cystic fibrosis : official journal of the …, 2015)

Target: T1, recombinant Porin D (P. aeruginosa PAO1, UniProt P32722 24-443)
T1 sequence: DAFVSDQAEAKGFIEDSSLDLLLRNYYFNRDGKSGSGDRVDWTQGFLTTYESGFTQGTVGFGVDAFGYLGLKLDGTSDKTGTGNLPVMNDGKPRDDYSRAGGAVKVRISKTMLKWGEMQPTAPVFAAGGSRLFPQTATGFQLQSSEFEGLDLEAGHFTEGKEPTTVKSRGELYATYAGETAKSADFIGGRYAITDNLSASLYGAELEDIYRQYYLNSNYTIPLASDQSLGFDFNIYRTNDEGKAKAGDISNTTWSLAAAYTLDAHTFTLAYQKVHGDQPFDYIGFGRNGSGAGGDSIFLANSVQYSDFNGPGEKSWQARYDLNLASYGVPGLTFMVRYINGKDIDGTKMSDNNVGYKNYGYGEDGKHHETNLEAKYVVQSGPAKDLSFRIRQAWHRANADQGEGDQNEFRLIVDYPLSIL
Assay: BLI

B1: recombinant vitronectin aa 80-396 (domain or fragment, human, UniProt P04004 80-396, looked up)
chain: DGEEKNNATVHEQVGGPSLTSDLQAQSKGNPEQTPVLKPEEEAPAPEVGASKPEGIDSRPETLHPGRPQPPAEEELCSGKPFDAFTDLKNGSLFAFRGQYCYELDEKAVRPGYPKLIRDVWGIEGPIDAAFTRINCQGKTYLFKGSQYWRFEDGVLDPDYPRNISDGFDGIPDNVDAALALPAHSYSGRERVYFFKGKQYWEYQFQHQPSQEECEGSSLSAVFEHFAMMQRDSWEDIFELLFWGRTSAGTRQPQFISRDWHGVPGQVDAAMAGRIYISGMAPRPSLAKKQRFRHRNRKGYRSQRGHSRGRNQNSRRP
Question: With B1 as the binder, how does the Kd read?
Answer: 3.6 nM
